Measurements as given in US20220332791A1 (ALIVEGEN, published 2022).
Where a chain is given by its changes, count along the chain named.

T1: activin A (UniProt P08476 311-426)
T1 sequence (looked up): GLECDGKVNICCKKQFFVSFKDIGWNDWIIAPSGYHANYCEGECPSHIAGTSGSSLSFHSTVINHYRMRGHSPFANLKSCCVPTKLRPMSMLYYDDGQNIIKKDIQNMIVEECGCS

T2: BMP9 (UniProt Q9UK05 320-429)
T2 sequence (looked up): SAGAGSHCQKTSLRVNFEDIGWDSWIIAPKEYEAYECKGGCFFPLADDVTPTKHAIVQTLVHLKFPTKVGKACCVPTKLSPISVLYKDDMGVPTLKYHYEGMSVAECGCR

T3: myostatin (UniProt O14793 267-375)
T3 construct: also called GDF-8; recombinant myostatin
T3 sequence (looked up): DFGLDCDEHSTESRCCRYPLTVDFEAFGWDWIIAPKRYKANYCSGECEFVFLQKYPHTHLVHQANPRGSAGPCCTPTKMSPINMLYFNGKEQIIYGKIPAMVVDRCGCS

T4: activin B (UniProt P09529 293-407)
T4 sequence (looked up): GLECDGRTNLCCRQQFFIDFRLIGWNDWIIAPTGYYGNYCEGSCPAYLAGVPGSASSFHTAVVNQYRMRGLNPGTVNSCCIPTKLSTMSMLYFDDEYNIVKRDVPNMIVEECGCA

B1: wild-type ActRIIB-ECD-Fc fusion protein (Fc fusion)
chain: ETRECIYYNANWELERTNQSGLERCEGEQDKRLHCYASWRNSSGTIELVKKGCWLDDFNCYDRQECVATEENPQVYFCCCEGNFCNERFTHLPEAGGPEVTYEPPPTAPTGGGGSESKYGPPCPPCP
notes: also called WT ActRIIB-Fc; WT; not shown: human Fc domain
B2: hybrid ActRIIB ligand trap protein AG-0007 (SEQ ID NO: 9) (Fc fusion)
chain: B1 chain with A68E, T69K, E70K, E71D, N72S, Q74E
notes: not shown: human Fc domain
B3: hybrid ActRIIB ligand trap protein AG-0003 (SEQ ID NO: 5) (Fc fusion, not shown: a dimerising Fc or GST)
chain: B1 chain with F58I, Q64T, E65D, A68E, T69K, E70K, E71D, N72S, Q74E
B4: hybrid ActRIIB ligand trap protein AG-0014 (SEQ ID NO: 16) (Fc fusion)
chain: B1 chain with E26Y, E28D, Q29K, L33R
notes: also called Hybrid Trap B; not shown: human Fc domain
B5: hybrid ActRIIB ligand trap protein AG-0008 (SEQ ID NO: 10) (Fc fusion)
chain: B1 chain with A68E, T69K, E70K, E71D, N72S
notes: not shown: human Fc domain
B6: hybrid ActRIIB ligand trap protein AG-0027 (SEQ ID NO: 29) (Fc fusion)
chain: B1 chain with E28D, F58I, E70K
notes: also called Hybrid Trap A; Hybrid Trap; not shown: human Fc domain
B7: hybrid ActRIIB ligand trap protein AG-0006 (SEQ ID NO: 8) (Fc fusion)
chain: B1 chain with Q64T, E65D, A68E, T69K, E70K, E71D, N72S, Q74E
notes: not shown: human Fc domain
B8: hybrid ActRIIB ligand trap protein AG-0005 (SEQ ID NO: 7) (Fc fusion, not shown: a dimerising Fc or GST)
chain: B1 chain with Q64T, E65D, A68E, T69K, E70K, E71D, N72S

How the values were obtained:
activin A [1] = biological target: T1, activin A; test: cell-based or functional assay
BMP9 [2] = biological target: T2, BMP9; test: cell-based or functional assay
myostatin [3] = biological target: T3, myostatin; test: KinExA, myostatin-coupled Sepharose beads, trap held constant and ligand titrated
Method: (§1) AG-0014 and AG-0027 were analyzed by kinetic exclusion assay (KinExA) (Sapidyne Instruments, Inc.). 20-30 μg/ml of myostatin, activin A or BMP-9 was separately coupled to NHS-Activated Sepharose 4 Fast Flow beads (GE Healthcare) using experimental procedures recommended by Sapidyne Instruments. The concentration for each hybrid ActRIIB ligand trap protein was held constant as the ligand was titrated in a 2.5-fold serial dilution. Solutions were allowed to reach equilibrium by incubation at room temperature up to 24 hours and subsequently passed through a flow cell pre-packed with ligand-coated Sepharose beads on a KinExA 3000 machine (Sapidyne Instruments). The free hybrid ActRIIB ligand trap proteins captured on the beads was detected by Alexa Fluor 647-labeled goat anti-human-Fc antibody (Jackson ImmunoResearch Laboratories, Inc.). The ligand binding affinity values (KD) were calculated using the KinExA Pro software (Sapidyne Instruments).

activin B = biological target: T4, activin B; test: cell-based or functional assay
BMP9 [4] = biological target: T2, BMP9; test: cell-based or functional assay; remark: listed apart in the source
activin A [5] = biological target: T1, activin A; test: cell-based or functional assay; remark: listed apart in the source
myostatin [6] = biological target: T3, myostatin; test: cell-based or functional assay
BMP9 [7] = biological target: T2, BMP9; test: Octet Red BLI, trap on AHC biosensors, 10 nM BMP9; legend: +++ KD < 10^-8M
Method: (§2) Myostatin and BMP9 binding activities of various hybrid ActRIIB ligand trap proteins were initially analyzed using Octect Red (ForteBio). Purified proteins or conditioned media were individually loaded to AHC biosensors with maximum loading. Following a baseline washing phase, the sensors were exposed to 10 nM myostatin or BMP9, respectively, for an association step followed by a dissociation step. All experiments were performed with shaking at 1,000 rpm. Binding activity was analyzed using ForteBio's software with KD being calculated using the ratio Kd/Ka.

activin A [8] = biological target: T1, activin A; test: KinExA, activin A-coupled Sepharose beads, trap held constant and ligand titrated
Method: as §1

myostatin [9] = biological target: T3, myostatin; test: Octet Red BLI, trap on AHC biosensors, 10 nM myostatin; legend: +++ KD < 10^-8M
Method: as §2

BMP9 [10] = biological target: T2, BMP9; test: KinExA, BMP-9-coupled Sepharose beads, trap held constant and ligand titrated
Method: as §1

BMP9 [11] = biological target: T2, BMP9; test: Octet Red BLI, trap on AHC biosensors, 10 nM BMP9; legend: + KD 10^-4 - 10^-6M
Method: as §2

BMP9 [12] = biological target: T2, BMP9; test: Octet Red BLI, trap on AHC biosensors, 10 nM BMP9; legend: ++ KD: 10^-6 - 10^-7M
Method: as §2

myostatin [13] = biological target: T3, myostatin; test: cell-based or functional assay; remark: listed apart in the source

Row | Binder | IC50 (read off the curve) (activin A-induced luciferase, C2C12-CAGA-luc reporter cells) (activin A [1]) | Kd (myostatin [3]) | Cell-Based IC50 (nM) Against Activin B, C2C12-CAGA-luc reporter (activin B) | Cell-Based IC50 (nM) Against Activin A, C2C12-CAGA-luc reporter (activin A [5]) | Cell-Based IC50 (nM) Against Myostatin, C2C12-CAGA-luc reporter (myostatin [6]) | Kd (activin A [8]) | KD (myostatin [9]) | KD (BMP9 [11]) | also measured
1 | B1 | ~4 nM | 0.00506 nM | 1.04 nM | 1.27 nM | 1.24 nM | 0.00138 nM | < 10 nM |  | IC50 (read off the curve) (BMP9-induced luciferase, C2C12-BRE-luc reporter cells) (BMP9 [2]): ~10 nM; Cell-Based IC50 (nM) Against BMP9, C2C12-BRE-luc reporter (BMP9 [4]): 3.4 nM; KD (BMP9 [7]): < 10 nM; Kd (BMP9 [10]): 0.00425 nM
2 | B2 |  |  |  |  |  |  | < 10 nM | 1000 to 100000 nM | 
3 | B3 | ~10 nM |  |  |  |  |  | < 10 nM |  | KD (BMP9 [12]): 100 to 1000 nM; IC50 (read off the curve) (myostatin-induced luciferase, C2C12-CAGA-luc reporter cells) (myostatin [13]): ~0.4 nM
4 | B4 |  | 0.00875 nM | 2.1 nM | 1.15 nM | 0.95 nM | 0.000357 nM | < 10 nM |  | 
5 | B5 |  |  |  |  |  |  | < 10 nM |  | KD (BMP9 [12]): 100 to 1000 nM
6 | B6 |  | 0.00787 nM | 1.3 nM | 1.62 nM | 1.14 nM | 0.00109 nM | < 10 nM |  | 
7 | B7 |  |  |  |  |  |  | < 10 nM | 1000 to 100000 nM | 
8 | B8 | ~10 nM |  |  |  |  |  | < 10 nM | 1000 to 100000 nM | IC50 (read off the curve) (myostatin-induced luciferase, C2C12-CAGA-luc reporter cells) (myostatin [13]): ~1 nM
